Results taken from patent publication US20240101716A1.
Values belong to the binder of their own block, whether it stands above or below them.

What was measured:
[1] = target: SIRP-α expressed on cells (UniProt P78324); test: FACS binding test on SIRP-a cell line, Geom.Mean; unit from the axis log(nm)
[2] = target: SIRPα (blocking assay of Example 11) (UniProt P78324); test: blocking of the CD47/SIRPα interaction, ratio 665 nm/615 nm against antibody concentration
[3] = target: recombinant human SIRPα variant 1 protein (human) (UniProt P78324); test: SPR Biacore 8K, antibody captured, antigen analyte
Sequence of recombinant human SIRPα variant 1 protein (human) (P78324 31-370, change not shown): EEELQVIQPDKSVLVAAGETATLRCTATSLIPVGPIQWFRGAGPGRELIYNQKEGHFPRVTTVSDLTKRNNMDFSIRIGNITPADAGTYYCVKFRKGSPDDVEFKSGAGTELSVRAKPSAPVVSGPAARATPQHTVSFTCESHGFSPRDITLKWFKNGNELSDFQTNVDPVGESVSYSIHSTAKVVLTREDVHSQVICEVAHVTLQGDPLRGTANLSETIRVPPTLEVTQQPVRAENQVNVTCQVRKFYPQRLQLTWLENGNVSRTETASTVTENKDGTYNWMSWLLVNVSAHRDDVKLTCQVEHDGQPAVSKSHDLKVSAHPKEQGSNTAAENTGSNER

[4] = target: SIRPα-His protein (UniProt P78324); test: competition ELISA, SIRPα-His binding to coated CD47-Fc
[5] = target: SIRPα-His protein (UniProt P78324); test: competition ELISA: SIRPα-His binding to coated CD47-Fc in the presence of the antibody, OD450
[6] = target: recombinant human SIRPα variant 1 protein (human) (UniProt P78324); test: ELISA on coated recombinant human SIRPα v1, OD450

EC50 [1]: 0.417 nM
IC50 (read off the curve) [2]: 100 pM
Kd [3]: 0.999 nM
koff [3]: 0.000804 s⁻¹
kon [3]: 805000 M⁻¹ s⁻¹
B1: HSP210-03-hz51 (antibody, V domains shown)
VH: QVQLVQSGAEVKKPGSSVKVSCKASGYTFTSNYIHWVRQAPGQGLEWMGWIYPGDADTNYNQKFNGRVTLTADKSTSTAYMELSSLRSEDTAVYYCAINYGGIWFAYWGQGTLVTVSS
VL: DIQMTQSPSSLSASVGDRVTITCQASQDIGNKLIWYQQKPGKAPKLLIYYVTNLPGGVPSRFSGSGSGTDFTLTISSLQPEDFATYYCLQYKQNPLTFGQGTKLEIK

IC50 [4]: 0.145 nM
B2: HSP210-03-hz32 (antibody, V domains shown)
VH: QVQLVQSGAEVKKPGSSVKVSCKASGYTFTSNYIHWVRQAPGQGLEWMGWIYPGDGDTNYNQKFNGRVTLTADKSTSTAYMELSSLRSEDTAVYYCAINYGGIWFAYWGQGTLVTVSS
VL: DIQMTQSPSSLSASVGDRVTITCQASQDIGNKLIWFQQKPGKAPKLLIHYVTNLPGGVPSRFSGSRSGSDYTLTISSLQPEDFATYYCLQYKQNPLTFGQGTKLEIK

IC50 [4]: 0.16 nM
B3: HSP210-03-hz22 (antibody, V domains shown)
VH: QVQLVQSGAEVKKPGSSVKVSCKASGYTFTSNYIHWVRQAPGQGLEWMGWIYPGDGDTNYNQKFNGRVTITADKSTSTAYMELSSLRSEDTAVYYCAINYGGIWFAYWGQGTLVTVSS
VL: DIQMTQSPSSLSASVGDRVTITCQASQDIGNKLIWFQQKPGKAPKLLIHYVTNLPGGVPSRFSGSRSGSDYTLTISSLQPEDFATYYCLQYKQNPLTFGQGTKLEIK

IC50 [4]: 0.13 nM
B4: HSP210-03-hz42 (antibody, V domains shown)
VH: QVQLVQSGAEVKKPGSSVKVSCKASGYTFTSNYIHWVRQAPGQGLEWMGWIYPGEGDTNYNQKFNGRVTLTADKSTSTAYMELSSLRSEDTAVYYCAINYGGIWFAYWGQGTLVTVSS
VL: DIQMTQSPSSLSASVGDRVTITCQASQDIGNKLIWFQQKPGKAPKLLIHYVTNLPGGVPSRFSGSRSGSDYTLTISSLQPEDFATYYCLQYKQNPLTFGQGTKLEIK

IC50 [4]: 0.13 nM
B5: HSP210-03-hz52 (antibody, V domains shown)
VH: QVQLVQSGAEVKKPGSSVKVSCKASGYTFTSNYIHWVRQAPGQGLEWMGWIYPGDADTNYNQKFNGRVTLTADKSTSTAYMELSSLRSEDTAVYYCAINYGGIWFAYWGQGTLVTVSS
VL: DIQMTQSPSSLSASVGDRVTITCQASQDIGNKLIWFQQKPGKAPKLLIHYVTNLPGGVPSRFSGSRSGSDYTLTISSLQPEDFATYYCLQYKQNPLTFGQGTKLEIK

IC50 [5]: 0.383 µg/mL
Kd [3]: 1.13 nM
koff [3]: 0.000148 s⁻¹
kon [3]: 131000 M⁻¹ s⁻¹
EC50 [6]: 0.0121 µg/mL
B6: 300A6A6 (antibody, V domains shown)
VH: QVQLQQSGTELVKPGSSVKISCKASGYTFTSNYIHWIRQQPGNGLEWIGWIYPGDGDTNYNQKFNGKATLTADKSSSTAYMQLSSLTSEDYAVYFCAINYGGIWFAYWGQGTLVTVSS
VL: DIQMTQSPSSMSASLGDRVTITCQASQDIGNKLIWFQQKPGKSPRLMIHYVTNLPGGVPLRFSGSRSGSDYSLTISSLESEDMADYYCLQYKQNPLTFGSGTKLEIK

IC50 [4]: 0.14 nM
B7: HSP210-03-Chi (antibody, V domains shown)
VH: QVQLQQSGTELVKPGSSVKISCKASGYTFTSNYIHWIRQQPGNGLEWIGWIYPGDGDTNYNQKFNGKATLTADKSSSTAYMQLSSLTSEDYAVYFCAINYGGIWFAYWGQGTLVTVSS
VL: DIQMTQSPSSMSASLGDRVTITCQASQDIGNKLIWFQQKPGKSPRLMIHYVTNLPGGVPLRFSGSRSGSDYSLTISSLESEDMADYYCLQYKQNPLTFGSGTKLEIK

IC50 [4]: 0.21 nM
B8: HSP210-01-hz22 (antibody, V domains shown)
VH: QVQLQESGPGLVKPSETLSLTCTFSGFSLNTYDIGMGWIRQPPGKGLEWIGHIWWNDREYYNSALQSRVTISKDTSKTQVSLKLSSVTAADTAVYYCVRIDYFGSGQAWFTYWGQGTLVTVSS
VL: EIVLTQSPGTLSLSPGERATLSCSSSSTISSTYLHWYQQKPGQAPRLLISGTSNLASGIPDRFSGSGSGTDYTLTISRLEPEDVAVYYCQQGSRIPFTFGQGTKLEIK

IC50 [4]: 0.23 nM
B9: HSP210-01-hz52 (antibody, V domains shown)
VH: QVQLQESGPGLVKPSETLSLTCTFSGFSLNTYDIGMGWIRQPPGKGLEWIAHIWWNDREYYSSALQSRVTISKDTSKTQVSLKLSSVTAADTAVYYCVRIDYFGSGQAWFTYWGQGTLVTVSS
VL: EIVLTQSPGTLSLSPGERATLSCSSSSTISSTYLHWYQQKPGQAPRLLISGTSNLASGIPDRFSGSGSGTDYTLTISRLEPEDVAVYYCQQGSRIPFTFGQGTKLEIK

IC50 [4]: 0.16 nM
B10: HSP210-01-hz62 (antibody, V domains shown)
VH: QVQLQESGPGLVKPSETLSLTCTFSGFSLNTYDIGMGWIRQPPGKGLEWIAHIWWNDREYYNPALQSRVTISKDTSKTQVSLKLSSVTAADTAVYYCVRIDYFGSGQAWFTYWGQGTLVTVSS
VL: EIVLTQSPGTLSLSPGERATLSCSSSSTISSTYLHWYQQKPGQAPRLLISGTSNLASGIPDRFSGSGSGTDYTLTISRLEPEDVAVYYCQQGSRIPFTFGQGTKLEIK

IC50 [4]: 0.21 nM
B11: HSP210-01-hz61 (antibody, V domains shown)
VH: QVQLQESGPGLVKPSETLSLTCTFSGFSLNTYDIGMGWIRQPPGKGLEWIAHIWWNDREYYNPALQSRVTISKDTSKTQVSLKLSSVTAADTAVYYCVRIDYFGSGQAWFTYWGQGTLVTVSS
VL: EIVLTQSPGTLSLSPGERATLSCSSSSTISSTYLHWYQQKPGQAPRLLIYGTSNLASGIPDRFSGSGSGTDFTLTISRLEPEDFAVYYCQQGSRIPFTFGQGTKLEIK

IC50 [4]: 0.16 nM
B12: HSP210-01-hz32 (antibody, V domains shown)
VH: QVQLQESGPGLVKPSETLSLTCTFSGFSLNTYDIGMGWIRQPPGKGLEWIAHIWWNDREYYNSALQSRVTISKDTSKTQVSLKLSSVTAADTAVYYCVRIDYFGSGQAWFTYWGQGTLVTVSS
VL: EIVLTQSPGTLSLSPGERATLSCSSSSTISSTYLHWYQQKPGQAPRLLISGTSNLASGIPDRFSGSGSGTDYTLTISRLEPEDVAVYYCQQGSRIPFTFGQGTKLEIK

IC50 [5]: 0.356 µg/mL
Kd [3]: 2 nM
koff [3]: 0.000374 s⁻¹
kon [3]: 187000 M⁻¹ s⁻¹
EC50 [6]: 0.0182 µg/mL
B13: 248G3F6 (antibody, V domains shown)
VH: EVQLQQSGAELVKPGASVKLSCTASGFNFEDTYMHWVKQRPDQGLEWIGRIDPADGDTKYNPKFQDKATITVDTSSNTAYLQLSSLTSEDTAVYYCVRGNYVNWGQGTTLTVSS
VL: QIVLIQSPAIMSASPGERVTLTCRASSSVSSSYLYWYQQKPGSSPKLWIYSTSNLASGVPARFSGSGSGTSYSLTISSMEAEDAASYFCHQWYSYPRTFGGGTKLEIK

IC50 [4]: 0.14 nM
B14: HSP210-02-Chi (antibody, V domains shown)
VH: EVQLQQSGAELVKPGASVKLSCTASGFNFEDTYMHWVKQRPDQGLEWIGRIDPADGDTKYNPKFQDKATITVDTSSNTAYLQLSSLTSEDTAVYYCVRGNYVNWGQGTTLTVSS
VL: QIVLIQSPAIMSASPGERVTLTCRASSSVSSSYLYWYQQKPGSSPKLWIYSTSNLASGVPARFSGSGSGTSYSLTISSMEAEDAASYFCHQWYSYPRTFGGGTKLEIK

IC50 [4]: 0.11 nM
EC50 [1]: 0.54 nM
IC50 (read off the curve) [2]: 100 pM
Kd [3]: 0.423 nM
koff [3]: 0.000298 s⁻¹
kon [3]: 704000 M⁻¹ s⁻¹
B15: HSP210-02-hz52 (antibody, V domains shown)
VH: QVQLVQSGAEVKKPGASVKVSCKASGFNFEDTYMHWVRQAPGQGLEWMGRIDPADADTKYNPKFQDRVTITVDTSTNTAYMELSSLRSEDTAVYYCVRGNYVNWGQGTTVTVSS
VL: EIVLTQSPGTLSLSPGERATLSCRASSSVSSSYLYWYQQKPGQAPRLLIYSTSNLASGIPDRFSGSGSGTDYTLTISRLEPEDAAVYFCHQWYSYPRTFGGGTKVEIK

IC50 [4]: 0.11 nM
B16: HSP210-02-hz32 (antibody, V domains shown)
VH: QVQLVQSGAEVKKPGASVKVSCKASGFNFEDTYMHWVRQAPGQGLEWMGRIDPADGDTKYNPKFQDRVTITVDTSTNTAYMELSSLRSEDTAVYYCVRGNYVNWGQGTTVTVSS
VL: EIVLTQSPGTLSLSPGERATLSCRASSSVSSSYLYWYQQKPGQAPRLLIYSTSNLASGIPDRFSGSGSGTDYTLTISRLEPEDAAVYFCHQWYSYPRTFGGGTKVEIK

IC50 [4]: 0.12 nM
B17: HSP210-02-hz42 (antibody, V domains shown)
VH: QVQLVQSGAEVKKPGASVKVSCKASGFNFEDTYMHWVRQAPGQGLEWMGRIDPAEGDTKYNPKFQDRVTITVDTSTNTAYMELSSLRSEDTAVYYCVRGNYVNWGQGTTVTVSS
VL: EIVLTQSPGTLSLSPGERATLSCRASSSVSSSYLYWYQQKPGQAPRLLIYSTSNLASGIPDRFSGSGSGTDYTLTISRLEPEDAAVYFCHQWYSYPRTFGGGTKVEIK

IC50 [4]: 0.092 nM
B18: HSP210-02-hz22 (antibody, V domains shown)
VH: QVQLVQSGAEVKKPGASVKVSCKASGFNFEDTYMHWVRQAPGQGLEWMGRIDPADGDTKYNPKFQDRVTMTVDTSTNTAYMELSSLRSEDTAVYYCVRGNYVNWGQGTTVTVSS
VL: EIVLTQSPGTLSLSPGERATLSCRASSSVSSSYLYWYQQKPGQAPRLLIYSTSNLASGIPDRFSGSGSGTDYTLTISRLEPEDAAVYFCHQWYSYPRTFGGGTKVEIK
